Data reported in publication PMC5571166, “Mapping the key residues of SufB and SufD essential for biosynthesis of iron-sulfur clusters” (Scientific Reports, 2017).
Numbering of substitutions follows the chain as printed.

How the values were obtained:
Test in all cases: SEC; SufBCD complexes co-expressed in E. coli and co-purified on Phenyl FF, Q XL and Sephacryl S-200; eluted from gel filtration at about 160 kDa; subunit composition checked by SDS-PAGE of the purified sample
Conditions in all cases: both partners purified
SufB^R226A = molecular target: T1, SufB^R226A (Escherichia coli, UniProt P77522 1-495, SufB^R226A)
T1 construct: SufB of the Escherichia coli sufABCDSE operon
T1 sequence: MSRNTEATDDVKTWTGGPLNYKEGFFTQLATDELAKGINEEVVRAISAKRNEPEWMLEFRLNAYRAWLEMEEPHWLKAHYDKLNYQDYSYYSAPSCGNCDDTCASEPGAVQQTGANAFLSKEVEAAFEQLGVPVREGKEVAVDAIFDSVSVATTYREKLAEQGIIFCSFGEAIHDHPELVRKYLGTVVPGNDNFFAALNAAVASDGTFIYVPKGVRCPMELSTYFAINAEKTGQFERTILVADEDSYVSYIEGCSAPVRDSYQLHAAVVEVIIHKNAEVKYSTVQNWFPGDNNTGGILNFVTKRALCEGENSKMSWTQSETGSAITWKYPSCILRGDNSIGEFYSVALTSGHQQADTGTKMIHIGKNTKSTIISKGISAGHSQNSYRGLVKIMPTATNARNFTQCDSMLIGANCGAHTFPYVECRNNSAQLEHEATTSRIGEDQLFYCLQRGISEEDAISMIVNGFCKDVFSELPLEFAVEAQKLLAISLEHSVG

SufB^C254A = molecular target: T2, SufB^C254A (Escherichia coli, UniProt P77522 1-495, SufB^C254A)
T2 construct: SufB of the Escherichia coli sufABCDSE operon; source: pBBR-sufAB carrying the mutation, in bacterial extract
T2 sequence: T1 sequence with A226R, C254A

SufB^C405A = molecular target: T3, SufB^C405A (Escherichia coli, UniProt P77522 1-495, SufB^C405A)
T3 construct: SufB of the Escherichia coli sufABCDSE operon
T3 sequence: T1 sequence with A226R, C405A

SufB^N228A = molecular target: T4, SufB^N228A (Escherichia coli, UniProt P77522 1-495, SufB^N228A)
T4 construct: SufB of the Escherichia coli sufABCDSE operon
T4 sequence: T1 sequence with A226R, N228A

Measured: binding result

B1: SufC (natural protein, Escherichia coli)
chain: MLSIKDLHVSVEDKAILRGLSLDVHPGEVHAIMGPNGSGKSTLSATLAGREDYEVTGGTVEFKGKDLLALSPEDRAGEGIFMAFQYPVEIPGVSNQFFLQTALNAVRSYRGQETLDRFDFQDLMEEKIALLKMPEDLLTRSVNVGFSGGEKKRNDILQMAVLEPELCILDESDSGLDIDALKVVADGVNSLRDGKRSFIIVTHYQRILDYIKPDYVHVLYQGRIVKSGDFTLVKQLEEQGYGWLTEQQ
notes: SufC of the Escherichia coli sufABCDSE operon; also called SufC subunit of the SufBCD complex
binds: all assays above

B2: SufD (natural protein, Escherichia coli)
chain: MAGLPNSSNALQQWHHLFEAEGTKRSPQAQQHLQQLLRTGLPTRKHENWKYTPLEGLINSQFVSIAGEISPQQRDALALTLDSVRLVFVDGRYVPALSDATEGSGYEVSINDDRQGLPDAIQAEVFLHLTESLAQSVTHIAVKRGQRPAKPLLLMHITQGVAGEEVNTAHYRHHLDLAEGAEATVIEHFVSLNDARHFTGARFTINVAANAHLQHIKLAFENPLSHHFAHNDLLLAEDATAFSHSFLLGGAVLRHNTSTQLNGENSTLRINSLAMPVKNEVCDTRTWLEHNKGFCNSRQLHKTIVSDKGRAVFNGLINVAQHAIKTDGQMTNNNLLMGKLAEVDTKPQLEIYADDVKCSHGATVGRIDDEQIFYLRSRGINQQDAQQMIIYAFAAELTEALRDEGLKQQVLARIGQRLPGGAR
notes: SufD of the Escherichia coli sufABCDSE operon; One SufD per SufBCD complex (1:2:1); also called SufD subunit of the SufBCD complex
binds: all assays above
